Reference: patent US20090297479A1 (published 2009)

T1: DC-HIL, mouse, endogenous on APC / dendritic cells (mouse, UniProt Q99P91 23-574)
T1 sequence (looked up): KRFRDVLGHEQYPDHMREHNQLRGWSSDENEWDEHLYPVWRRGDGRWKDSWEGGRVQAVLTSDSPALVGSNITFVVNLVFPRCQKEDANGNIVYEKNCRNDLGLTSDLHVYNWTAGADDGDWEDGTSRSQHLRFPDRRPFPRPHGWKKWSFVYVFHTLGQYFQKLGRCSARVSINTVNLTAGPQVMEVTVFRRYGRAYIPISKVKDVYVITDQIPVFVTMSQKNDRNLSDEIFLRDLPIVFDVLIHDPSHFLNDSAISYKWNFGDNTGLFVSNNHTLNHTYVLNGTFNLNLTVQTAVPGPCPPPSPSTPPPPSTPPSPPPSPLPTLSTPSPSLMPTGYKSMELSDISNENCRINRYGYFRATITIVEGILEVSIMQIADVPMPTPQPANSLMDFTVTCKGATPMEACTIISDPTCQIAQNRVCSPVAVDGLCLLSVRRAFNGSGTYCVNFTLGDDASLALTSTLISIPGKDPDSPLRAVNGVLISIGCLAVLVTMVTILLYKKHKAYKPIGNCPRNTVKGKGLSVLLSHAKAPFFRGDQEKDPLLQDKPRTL

T2: DC-HIL-Fc RAA mutant (replacement of RGD sequence with RAA) (mouse; human, UniProt Q99P91 23-502)
T2 construct: extracellular domain; Positions 65 and 66 are derived from the printed position of RGD (aa 64-66); not shown: Fc of human IgG1
T2 sequence (looked up): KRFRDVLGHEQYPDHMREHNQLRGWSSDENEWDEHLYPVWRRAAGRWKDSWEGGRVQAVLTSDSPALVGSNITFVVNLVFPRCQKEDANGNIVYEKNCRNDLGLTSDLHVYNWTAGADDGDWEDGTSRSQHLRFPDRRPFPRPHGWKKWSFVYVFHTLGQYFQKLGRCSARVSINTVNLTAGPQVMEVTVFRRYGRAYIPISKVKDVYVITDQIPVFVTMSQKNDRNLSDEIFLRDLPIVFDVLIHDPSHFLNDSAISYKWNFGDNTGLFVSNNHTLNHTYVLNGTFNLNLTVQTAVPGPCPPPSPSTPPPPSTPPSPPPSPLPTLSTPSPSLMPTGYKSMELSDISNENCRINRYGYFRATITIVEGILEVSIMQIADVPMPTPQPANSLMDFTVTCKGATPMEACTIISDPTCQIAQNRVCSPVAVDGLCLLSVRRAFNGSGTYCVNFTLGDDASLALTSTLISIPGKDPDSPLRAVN


Assays:
[1] = molecular target: T1, DC-HIL, mouse, endogenous on APC / …; assay: cell-based or functional assay
[2] = molecular target: T2, DC-HIL-Fc RAA mutant (replacement of …); assay: FACS, 10 µg/mL on activated CD4+ T-cells (ligand later identified as SD-4)
Protocol: Splenic CD3⁺ T-cells (1×10⁶) were activated by immobilized anti-CD3 Ab (1 or 3 μg/mL) or concanavalin A (10 μg/mL; Sigma, St Louis, Mo.) for 3 days. Freshly isolated and activated CD3⁺ T-cells were then treated with 5 μg/mL Fc blocker (BD Pharmingen, San Diego, Calif.) on ice for 30 minutes to block Fc-binding activity of Fc receptors on T-cells and incubated with 5 μg/mL PE-anti-CD3 Ab (BD Pharmingen) and 10 μg/mL DC-HIL-Fc or control human IgG (hIgG) plus 5 μg/mL FITC-anti-human IgG (both from Jackson ImmunoResearch, West Grove, Pa.). In some experiments, activated and Fc-blocked CD3⁺ T-cells were doubly-stained with 5 μg/mL FITC-labeled anti-CD4 or anti-CD8 Ab (BD Pharmingen) and Fc proteins/PE-anti-human IgG (BD Pharmingen). The treated cells were also stained with anti-CD69 Ab or isotypic control IgG to evaluate activation levels. After staining, binding of Fc proteins to T-cells and expression of marker molecules were analyzed by fluorescence-activated cell sorting (FACS).

recombinant Fc alone = molecular target: T3, recombinant Fc alone (human, UniProt P01857-1 99-330 = IgG part, limits assumed); assay: FACS on T-cells (ligand on activated T-cells later identified as SD-4)
T3 construct: domain: Fc portion

Binder | T-cell activation in the mixed lymphocyte reaction (3H-thymidine) [1] | binding result [2] | binding result (recombinant Fc alone)
SD4-Fc (extracellular domain of SD-4 fused to the Fc portion of human IgG1) (Fc fusion, UniProt O35988 24-145, looked up, not shown: a dimerising Fc or GST) ESIRETEVIDPQDLLEGRYFSGALPDDEDAGGSDDFELSGSGDLDDTEEPRPFPEVIEPLVPLDNHIPENAQPGIRVPSEPKELEENEVIPKRAPSDVGDDMSNKVSMSSTAQGSNIFERTE | 2 fold |  | 
syndecan-4 (SD-4), mouse, endogenous on T-cells (receptor, UniProt O35988 24-198, looked up, heparin/heparan sulfate chains (binding of DC-HIL is blocked by heparin), whole, on cells) ESIRETEVIDPQDLLEGRYFSGALPDDEDAGGSDDFELSGSGDLDDTEEPRPFPEVIEPLVPLDNHIPENAQPGIRVPSEPKELEENEVIPKRAPSDVGDDMSNKVSMSSTAQGSNIFERTEVLAALIVGGVVGILFAVFLILLLVYRMKKKDEGSYDLGKKPIYKKAPTNEFYA |  | binds | no binding
